First the molecules themselves.
B1: PMS1 protein homolog 1, residues 572 to 637; numbered along this chain, P54277 (parent)
chain: KKPMSASALFVQDHRPQFLIENPKTSLEDATLQIEELWKTLSEEEKLKYEEKATKDLERYNSQMKR

± gives the uncertainty stated by the source.

The variants in the data set derive from B1. The experiment in a line: abundance fitness (aPCA) (normalised: wild type 0, dead -1); higher = more abundant; growth selection in yeast, the domain comes from the species named. The conditions noted are these: Homo sapiens.
KKPMSASALFVQDHRPQFLIENPKTSLEDATLQIEELWKTLSEEEKLKYEEKATKDLERYNSLMKR: the abundance fitness is -0.109 ± 0.067.

As for KKPMSASALFVQDHRPQFLIENPKTSLEDATLQIEELWKTLSEEEKLKYEEKATKDLERYNSAMKR, the abundance fitness stood at 0.071 ± 0.079.

Consider KKPMSASALFVQDHRPQFLIENPKTSLEDATLQIEELWKTLSEEEKLKYEEKATKDLERYNSIMKR, for which the abundance fitness is -0.348 ± 0.17.

As for KKPMSASALFVQDHRPQFLIENPKTSLEDATLQIEELWKTLSEEEKLKYEEKATKDLERYNSVMKR, the abundance fitness was -0.113 ± 0.061.

KKPMSASALFVQDHRPQFLIENPKTSLEDATLQIEELWKTLSEEEKLKYEEKATKDLERYNSDMKR: the abundance fitness turned out to be 0.079 ± 0.15.

For KKPMSASALFVQDHRPQFLIENPKTSLEDATLQIEELWKTLSEEEKLKYEEKATKDLERYNSSMKR, the abundance fitness is -0.207 ± 0.1.

Turning to KKPMSASALFVQDHRPQFLIENPKTSLEDATLQIEELWKTLSEEEKLKYEEKATKDLERYNSHMKR, the abundance fitness is -0.21 ± 0.16.

Turning to KKPMSASALFVQDHRPQFLIENPKTSLEDATLQIEELWKTLSEEEKLKYEEKATKDLERYNSKMKR, the abundance fitness was 0.02 ± 0.11.

Consider KKPMSASALFVQDHRPQFLIENPKTSLEDATLQIEELWKTLSEEEKLKYEEKATKDLERYNSCMKR, for which the abundance fitness was -0.096 ± 0.11.

For KKPMSASALFVQDHRPQFLIENPKTSLEDATLQIEELWKTLSEEEKLKYEEKATKDLERYNSPMKR, the abundance fitness was -0.262 ± 0.098.

Take KKPMSASALFVQDHRPQFLIENPKTSLEDATLQIEELWKTLSEEEKLKYEEKATKDLERYNSEMKR: the abundance fitness is -0.038 ± 0.14.

On to KKPMSASALFVQDHRPQFLIENPKTSLEDATLQIEELWKTLSEEEKLKYEEKATKDLERYNSNMKR, for which the abundance fitness is 0.075 ± 0.16.

As for KKPMSASALFVQDHRPQFLIENPKTSLEDATLQIEELWKTLSEEEKLKYEEKATKDLERYNSMMKR, the abundance fitness is -0.109 ± 0.12.

Regarding KKPMSASALFVQDHRPQFLIENPKTSLEDATLQIEELWKTLSEEEKLKYEEKATKDLERYNSFMKR, the abundance fitness is -0.036 ± 0.4.

Regarding KKPMSASALFVQDHRPQFLIENPKTSLEDATLQIEELWKTLSEEEKLKYEEKATKDLERYNSGMKR, the abundance fitness was -0.093 ± 0.074.

With KKPMSASALFVQDHRPQFLIENPKTSLEDATLQIEELWKTLSEEEKLKYEEKATKDLERYNSYMKR, the abundance fitness is -0.078 ± 0.088.

Turning to KKPMSASALFVQDHRPQFLIENPKTSLEDATLQIEELWKTLSEEEKLKYEEKATKDLERYNSTMKR, the abundance fitness was -0.072 ± 0.088.

Take KKPMSASALFVQDHRPQFLIENPKTSLEDATLQIEELWKTLSEEEKLKYEEKATKDLERYNSRMKR: the abundance fitness was -0.178 ± 0.081.

As to KKPMSASALFVQDHRPQFLIENPKTSLEDATLQIEELWKTLSEEEKLKYEEKATKDLERYNSQVKR, the abundance fitness worked out at 0.015 ± 0.067.

In the case of KKPMSASALFVQDHRPQFLIENPKTSLEDATLQIEELWKTLSEEEKLKYEEKATKDLERYNSQGKR, the abundance fitness was -0.103 ± 0.1.

On to KKPMSASALFVQDHRPQFLIENPKTSLEDATLQIEELWKTLSEEEKLKYEEKATKDLERYNSQIKR, for which the abundance fitness was -0.172 ± 0.12.

For the variant KKPMSASALFVQDHRPQFLIENPKTSLEDATLQIEELWKTLSEEEKLKYEEKATKDLERYNSQFKR, the abundance fitness is -0.095 ± 0.15.

For the variant KKPMSASALFVQDHRPQFLIENPKTSLEDATLQIEELWKTLSEEEKLKYEEKATKDLERYNSQYKR, the abundance fitness was determined as 0.035 ± 0.14.

Turning to KKPMSASALFVQDHRPQFLIENPKTSLEDATLQIEELWKTLSEEEKLKYEEKATKDLERYNSQPKR, the abundance fitness is -0.108 ± 0.096.

As for KKPMSASALFVQDHRPQFLIENPKTSLEDATLQIEELWKTLSEEEKLKYEEKATKDLERYNSQEKR, the abundance fitness was -0.195 ± 0.2.

With KKPMSASALFVQDHRPQFLIENPKTSLEDATLQIEELWKTLSEEEKLKYEEKATKDLERYNSQNKR, the abundance fitness was -0.144 ± 0.13.

In the case of KKPMSASALFVQDHRPQFLIENPKTSLEDATLQIEELWKTLSEEEKLKYEEKATKDLERYNSQSKR, the abundance fitness was -0.049 ± 0.055.

For the variant KKPMSASALFVQDHRPQFLIENPKTSLEDATLQIEELWKTLSEEEKLKYEEKATKDLERYNSQCKR, the abundance fitness is -0.205 ± 0.15.

For KKPMSASALFVQDHRPQFLIENPKTSLEDATLQIEELWKTLSEEEKLKYEEKATKDLERYNSQAKR, the abundance fitness was -0.059 ± 0.09.

KKPMSASALFVQDHRPQFLIENPKTSLEDATLQIEELWKTLSEEEKLKYEEKATKDLERYNSQTKR: the abundance fitness is -0.142 ± 0.099.

In the case of KKPMSASALFVQDHRPQFLIENPKTSLEDATLQIEELWKTLSEEEKLKYEEKATKDLERYNSQHKR, the abundance fitness was 0.08 ± 0.16.

KKPMSASALFVQDHRPQFLIENPKTSLEDATLQIEELWKTLSEEEKLKYEEKATKDLERYNSQLKR: the abundance fitness was -0.133 ± 0.062.

In the case of KKPMSASALFVQDHRPQFLIENPKTSLEDATLQIEELWKTLSEEEKLKYEEKATKDLERYNSQKKR, the abundance fitness was -0.349 ± 0.21.

KKPMSASALFVQDHRPQFLIENPKTSLEDATLQIEELWKTLSEEEKLKYEEKATKDLERYNSQRKR: the abundance fitness was -0.136 ± 0.083.

In the case of KKPMSASALFVQDHRPQFLIENPKTSLEDATLQIEELWKTLSEEEKLKYEEKATKDLERYNSQDKR, the abundance fitness is -0.32 ± 0.2.

KKPMSASALFVQDHRPQFLIENPKTSLEDATLQIEELWKTLSEEEKLKYEEKATKDLERYNSQMAR: the abundance fitness was 0.014 ± 0.092.

Regarding KKPMSASALFVQDHRPQFLIENPKTSLEDATLQIEELWKTLSEEEKLKYEEKATKDLERYNSQMER, the abundance fitness was found to be 0.073 ± 0.12.

KKPMSASALFVQDHRPQFLIENPKTSLEDATLQIEELWKTLSEEEKLKYEEKATKDLERYNSQMVR: the abundance fitness is -0.068 ± 0.1.

For KKPMSASALFVQDHRPQFLIENPKTSLEDATLQIEELWKTLSEEEKLKYEEKATKDLERYNSQMHR, the abundance fitness is -0.373 ± 0.25.

For the variant KKPMSASALFVQDHRPQFLIENPKTSLEDATLQIEELWKTLSEEEKLKYEEKATKDLERYNSQMCR, the abundance fitness was -0.203 ± 0.24.

Consider KKPMSASALFVQDHRPQFLIENPKTSLEDATLQIEELWKTLSEEEKLKYEEKATKDLERYNSQMWR, for which the abundance fitness is -0.502 ± 0.22.

The record behind these values is the Human Domainome abundance scans (Beltran et al. 2025).
